# Data as given in PMC6110070.
# Legend:
# Lys65 = Lys65 (UniProt position 66, AAGANKVAVIK); conditions: Not stated. Ref 16 concerns affinity labelling of bL12 in situ on E. coli 70S ribosomes with a tRNA dialdehyde derivative.; cited from earlier work
# [1] = target: recombinant E. coli ribosomal protein bL12 (L12), C-terminally His-tagged, as purified: (L7/L12)2 (E. coli) (UniProt P0A7K2); assay: SEC; Superdex 75 column, elution followed at 280 nm and 260 nm, column calibrated with protein markers; apparent molecular weight about 50 kDa; oligomer of 13 kDa chains
substance,measurement,setting,value
50S ribosomal protein bL12 (L7/L12) (Escherichia coli),pKa,Lys65,7.2
"recombinant E. coli ribosomal protein bL12 (L12), C-terminally His-tagged, as purified: (L7/L12)2 (from UniProt P0A7K2 1-121; P0A7K2 1-121) (natural protein)",stoichiometry N,[1],4
